Data published in the supplement of paper PMC11316812.
± gives the standard deviation of the averaged measurements.

Columns and labels:
MCF7 = assay: percentage of EdU-negative (G0-arrested) nuclei per well, 72 h; higher = more G0 arrest; conditions: reference: sequence is the full UniProt precursor, the tested protein was the secreted form or ectodomain
hTERT-HMEC = assay: as above; conditions: reference: sequence is the full UniProt precursor, the tested protein was the secreted form or ectodomain
[1] = protein concentration 0.0225 µM
[2] = protein concentration 0.00725 µM
[3] = protein concentration 0.0725 µM
[4] = protein concentration 0.03125 µM
[5] = protein concentration 0.3125 µM
[6] = protein concentration 0.01825 µM
[7] = protein concentration 0.1825 µM
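Also: secreted proteins added to cultured cells, EdU pulse at the end, nuclei found by Hoechst imaging, EdU status from nuclear versus surrounding ring intensity ratio, PBS as neutral control.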

Row | Substance | percentage of EdU-negative (MCF7; [1]) | percentage of EdU-negative (MCF7; protein concentration 0.225 µM) | percentage of EdU-negative (hTERT-HMEC; [1]) | percentage of EdU-negative (hTERT-HMEC; protein concentration 0.225 µM) | also measured
1 | MWNMLIVAMCLALLGCLQAQELQGHVSIILLGATGDLAKKYLWQGLFQLYLDEAGRGHSFSFHGAALTAPKQGQELMAKALESLSCPKDMAPSHCAEHKDQFLQLSQYRQLKTAEDYQALNKDIEAQLQHAGLREAGRIFYFSVPPFAYEDIARNINSSCRPGPGAWLRVVLEKPFGHDHFSAQQLATELGTFFQEEEMYRVDHYLGKQAVAQILPFRDQNRKALDGLWNRHHVERVEIIMKETVDAEGRTSFYEEYGVIRDVLQNHLTEVLTLVAMELPHNVSSAEAVLRHKLQVFQALRGLQRGSAVVGQYQSYSEQVRRELQKPDSFHSLTPTFAAVLVHIDNLRWEGVPFILMSGKALDERVGYARILFKNQACCVQSEKHWAAAQSQCLPRQLVFHIGHGDLGSPAVLVSRNLFRPSLPSSWKEMEGPPGLRLFGSPLSDYYAYSPVRERDAHSVLLSHIFHGRKNFFITTENLLASWNFWTPLLESLAHKAPRLYPGGAENGRLLDFEFSSGRLFFSQQQPEQLVPGPGPAPMPSDFQVLRAKYRESPLVSAWSEELISKLANDIEATAVRAVRRFGQFHLALSGGSSPVALFQQLATAHYGFPWAHTHLWLVDERCVPLSDPESNFQGLQAHLLQHVRIPYYNIHPMPVHLQQRLCAEEDQGAQIYAREISALVANSSFDLVLLGMGADGHTASLFPQSPTGLDGEQLVVLTTSPSQPHRRMSLSLPLINRAKKVAVLVMGRMKREITTLVSRVGHEPKKWPISGVLPHSGQLVWYMDYDAFLG | 23.3 ± 2.2% | 25.2 ± 1.6% | 5.45 ± 1.2% | 7.4 ± 1.2% | 
2 | MSSFGYRTLTVALFTLICCPGSDEKVFEVHVRPKKLAVEPKGSLEVNCSTTCNQPEVGGLETSLDKILLDEQAQWKHYLVSNISHDTVLQCHFTCSGKQESMNSNVSVYQPPRQVILTLQPTLVAVGKSFTIECRVPTVEPLDSLTLFLFRGNETLHYETFGKAAPAPQEATATFNSTADREDGHRNFSCLAVLDLMSRGGNIFHKHSAPKMLEIYEPVSDSQMVIIVTVVSVLLSLFVTSVLLCFIFGQHLRQQRMGTYGVRAAWRRLPQAFRP | 24.9 ± 0.91% | 27.28 ± 0.18% | 5.54 ± 0.21% | 6.02 ± 0.093% | 
3 | MPSWALFMVTSCLLLAPQNLAQVSSQDVSLLASDSEPLKCFSRTFEDLTCFWDEEEAAPSGTYQLLYAYPREKPRACPLSSQSMPHFGTRYVCQFPDQEEVRLFFPLHLWVKNVFLNQTRTQRVLFVDSVGLPAPPSIIKAMGGSQPGELQISWEEPAPEISDFLRYELRYGPRDPKNSTGPTVIQLIATETCCPALQRPHSASALDQSPCAQPTMPWQDGPKQTSPSREASALTAEGGSCLISGLQPGNSYWLQLRSEPDGISLGGSWGSWSLPVTVDLPGDAVALGLQCFTLDLKNVTCQWQQQDHASSQGFFYHSRARCCPRDRYPIWENCEEEEKTNPGLQTPQFSRCHFKSRNDSIIHILVEVTTAPGTVHSYLGSPFWIHQAVRLPTPNLHWREISSGHLELEWQHPSSWAAQETCYQLRYTGEGHQDWKVLEPPLGARGGTLELRPRSRYRLQLRARLNGPTYQGPWSSWSDPTRVETATETAWISLVTALHLVLGLSAVLGLLLLRWQFPAHYRRLRHALWPSLPDLHRVLGQYLRDTAALSPPKATVSDTCEEVEPSLLEILPKSSERTPLPLCSSQAQMDYRRLQPSCLGTMPLSVCPPMAESGSCCTTHIANHSYLPLSYWQQP |  |  |  |  | percentage of EdU-negative (MCF7; [2]): 25.4 ± 0.65%; percentage of EdU-negative (MCF7; [3]): 26.02 ± 0.25%; percentage of EdU-negative (hTERT-HMEC; [2]): 4.77 ± 0.37%; percentage of EdU-negative (hTERT-HMEC; [3]): 6.04 ± 0.21%
4 | P32881 |  |  |  |  | percentage of EdU-negative (MCF7; [4]): 46 ± 0.63%; percentage of EdU-negative (MCF7; [5]): 49.3 ± 0.71%; percentage of EdU-negative (hTERT-HMEC; [4]): 25.9 ± 1.2%; percentage of EdU-negative (hTERT-HMEC; [5]): 30.4 ± 4.1%
5 | MKMRFLGLVVCLVLWTLHSEGSGGKLTAVDPETNMNVSEIISYWGFPSEEYLVETEDGYILCLNRIPHGRKNHSDKGPKPVVFLQHGLLADSSNWVTNLANSSLGFILADAGFDVWMGNSRGNTWSRKHKTLSVSQDEFWAFSYDEMAKYDLPASINFILNKTGQEQVYYVGHSQGTTIGFIAFSQIPELAKRIKMFFALGPVASVAFCTSPMAKLGRLPDHLIKDLFGDKEFLPQSAFLKWLGTHVCTHVILKELCGNLCFLLCGFNERNLNMSRVDVYTTHSPAGTSVQNMLHWSQAVKFQKFQAFDWGSSAKNYFHYNQSYPPTYNVKDMLVPTAVWSGGHDWLADVYDVNILLTQITNLVFHESIPEWEHLDFIWGLDAPWRLYNKIINLMRKYQ | 25.12 ± 0.15% | 27.7 ± 0.37% | 4.11 ± 0.31% | 5.43 ± 0.3% | 
6 | MKTALILLSILGMACAFSMKNLHRRVKIEDSEENGVFKYRPRYYLYKHAYFYPHLKRFPVQGSSDSSEENGDDSSEEEEEEEETSNEGENNEESNEDEDSEAENTTLSATTLGYGEDATPGTGYTGLAAIQLPKKAGDITNKATKEKESDEEEEEEEEGNENEESEAEVDENEQGINGTSTNSTEAENGNGSSGGDNGEEGEEESVTGANAEDTTETGRQGKGTSKTTTSPNGGFEPTTPPQVYRTTSPPFGKTTTVEYEGEYEYTGANEYDNGYEIYESENGEPRGDNYRAYEDEYSYFKGQGYDGYDGQNYYHHQ |  |  |  |  | percentage of EdU-negative (MCF7; [6]): 21.2 ± 2.7%; percentage of EdU-negative (MCF7; [7]): 24.2 ± 2.1%; percentage of EdU-negative (hTERT-HMEC; [6]): 5.184 ± 0.032%; percentage of EdU-negative (hTERT-HMEC; [7]): 5.29 ± 1.4%
7 | MSLVLLSLAALCRSAVPREPTVQCGSETGPSPEWMLQHDLIPGDLRDLRVEPVTTSVATGDYSILMNVSWVLRADASIRLLKATKICVTGKSNFQSYSCVRCNYTEAFQTQTRPSGGKWTFSYIGFPVELNTVYFIGAHNIPNANMNEDGPSMSVNFTSPGCLDHIMKYKKKCVKAGSLWDPNITACKKNEETVEVNFTTTPLGNRYMALIQHSTIIGFSQVFEPHQKKQTRASVVIPVTGDSEGATVQLTPYFPTCGSDCIRHKGTVVLCPQTGVPFPLDNNKSKPGGWLPLLLLSLLVATWVLVAGIYLMWRHERIKKTSFSTTTLLPPIKVLVVYPSEICFHHTICYFTEFLQNHCRSEVILEKWQKKKIAEMGPVQWLATQKKAADKVVFLLSNDVNSVCDGTCGKSEGSPSENSQDLFPLAFNLFCSDLRSQIHLHKYVVVYFREIDTKDDYNALSVCPKYHLMKDATAFCAELLHVKQQVSAGKRSQACHDGCCSL [Q9NRM6] | 25.3 ± 1.3% | 26.76 ± 0.21% | 4.78 ± 0.46% | 5.29 ± 0.1% | 
